Measurements taken from publication PMC12090751 (Journal of Virology, 2025).

Tests used:
[1] = target: HA1 F1 (aa 11-329) displayed on yeast as Aga2 fusion (Influenza A virus H5, Re8 vaccine …, UniProt Q9Q0U6, strain); assay: immunostaining of cells or tissue; conditions: one partner purified
[2] = target: HA1 fragment F7 (aa 50-271) displayed on yeast as Aga2 fusion (Influenza A virus H5, Re8 vaccine …, UniProt Q9Q0U6, strain); assay: immunostaining of cells or tissue; conditions: one partner purified

B1: Nb10 with Twin-Strep-tag (VHH)
VHH: QVQLQESGGGSVQAGGSLRLSCSASEYTRSMAWFRQVPGKEREGVAAIDTGNGNTYYPTVDGRFIISRGNAKNSVDLEMNSLTPDDTAIYYCAATQGPLWPTLGTQFSTESYNYWGQGTLVTVSS
binding result [1]: binds
binding result [2]: binds
